# Laboratory results reported in the nanobody polyreactivity screen of Harvey et al. (2022).
# Experiment: yeast display, Sf9 membrane polyspecificity reagent, FACS + sequencing; frameworks hold sequencing errors
# Method in brief: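 Galactose-induced (36–48 hours) yeast carrying a synthetic nanobody display library were exposed to 10% biotinylated, detergent-solubilized Sf9 membrane reagent at 4 °C for 1 hour. FACS followed streptavidin microbead enrichment, using low and high (top ~1%) gates for expression (anti-HA) and reagent binding (streptavidin). Colony PCR, MiSeq 2 × 250 sequencing and CDR-length filtering followed. Labels for polyreactivity reflect the gate of origin.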
row,Sequence,polyreactivity (PSR sort gate)
1,QVQLVESGGGLVQAGGSLRLSCAASGSIFFYYAMGWYRQAPGKERELVAAIRSGTSTNYADSVKGRFTISRDNAKNTVYLQMNSLKPEDTAVYYCAARFPGGGYGMDYWGQGTKVTVSS,low polyreactivity
2,QVQLVESGGGLVQAGGSLRLSCAASGSIFFYYAMGWYRQAPGKERELVAAITKIGVGTFYADSVKGRFTISRDNAKNTVYLQMNSLKPEDTAVYYCNARTAWEGYDYWGQGTQVTVSS,low polyreactivity
3,QVQLVESGGGLVQAGGSLRLSCAASGSIFFYYAMGWYRQAPGKERELVAAITSSGDSTYYADSVKGRFTISRDNAKNTVYLQMNSLKPEDTAVYYCAALYIGYTGYYYWGQGTQVSVSS,low polyreactivity
4,QVQLVESGGGLVQAGGSLRLSCAASGSIFFYYAMGWYRQAPGKERELVATINWSGGSTYYADSVKGRFTISRDNAKNTVYLQMNSLKPEDTAVYYCAAKDITLPGTMDSWGQGTQVTVSS,low polyreactivity
5,QVQLVESGGGLVQAGGSLRLSCAASGSIFFYYTMGWYRQAPGKERELVAAISDSGGSTYYADSVKGRFTISRDNAKNTVYLQMNSLKPEDTAVYYCAAADWFTVLESERVDYWGQGTQVTVSS,low polyreactivity
6,QVQLVESGGGLVQAGGSLRLSCAASGSIFFYYVMGWYRQAPGKERELVAVISSGGGSTYYADSVKGRFTISRDNAKNTVYLQMNSLKPEDTAVYYCAAGTYYKFYYWGQGTQVTVSS,high polyreactivity
7,QVQLVESGGGLVQAGGSLRLSCAASGSIFGANAMGWYRQAPGKERELVAAISTRGGRTYYADSVKGRFTISRDNAKNTVYLQMNSLKPEDTAVYYCATSGGRPYKYEYWGQGTQVTVSS,high polyreactivity
8,QVQLVESGGGLVQAGGSLRLSCAASGSIFGAYAMGWYRQAPGKERELVAAISGSGTSTYYADSVKGRFTISRDNAKNTVYLQMNSLKPEDTAVYYCAADGTYFYLYLGDRFDYWGQGTQVTVSS,low polyreactivity
9,QVQLVESGGGLVQAGGSLRLSCAASGSIFGAYAMGWYRQAPGKERELVASITGNGGSTYYADSVKGRFTISRDNAKNTVYLQMNSLKPEDTAVYDCAADDYSTRYRWFYYGSPYYYWGQGTQVTVSS,high polyreactivity
10,QVQLVESGGGLVQAGGSLRLSCAASGSIFGAYAMGWYRQAPGKERELVATITLRDGSTYYADSVKGRFTISRDNAKNTVYLQMNSLKPEDTAVYYCATYYSAINYGWSNTILYDYWGQGTQVTVSS,low polyreactivity
11,QVQLVESGGGLVQAGGSLRLSCAASGSIFGAYAMGWYRQAPGKETELVASITGNGGSTYYADSVKGRFTISRDNAKNTVYLQMNSLKPEDTAVYYCAADDYSTRYRWFYYGSPYYYWGQGTQVTVSS,high polyreactivity
12,QVQLVESGGGLVQAGGSLRLSCAASGSIFGAYAMGWYRQAPGKEWELVAAISWRDGSTYYADSVKGRFTISRDNAKNTVYLQMNCLKPEDTAVYYCAAEYVYIFYDSYYWGQGTQVTVSS,high polyreactivity
13,QVQLVESGGGLVQAGGSLRLSCAASGSIFGDNAMGWYRQAPGKERELVAAISIVGSTSYADSVKGRFTISRDNAKNTVYLPMNSLKPEDTAVYYCAAETVRSDTGFDYWGQGTQVTVSS,low polyreactivity
14,QVQLVESGGGLVQAGGSLRLSCAASGSIFGDNAMGWYRQAPGKERELVARISSGGNTYYADSVKGRFTISRDNAKNTVYLQMNSLKPEDTAVYYCAAAIKVSYKKFPYYYWGQGTQVTVSS,high polyreactivity
15,QVQLVESGGGLVQAGGSLRLSCAASGSIFGDNAMGWYRQAPGKERELVASITWSGGSTFYADSVKGRFTISRDNAKNTVYLQMNSLKPEDTAVYYCNADYAESPYFYLLLDYWGQGTQVTVSS,low polyreactivity
16,QVQLVESGGGLVQAGGSLRLSCAASGSIFGDNTMGWYRQAPGKERELVAAISWRGGSTYYADSVKGRFTISRDNAKNTVYLQMNSLKPEDTAVYYCIGGPGGYDYWGQGTQVTVSS,low polyreactivity
17,QVQLVESGGGLVQAGGSLRLSCAASGSIFGDNTRGWYRQAPGKERELVAAISWRGGSTYYADSVKGRFTISRDNSKNTVYLQMNSLKPEDTAVYYCIGGPGGYDYWGQGTQVTVSS,low polyreactivity
18,QVQLVESGGGLVQAGGSLRLSCAASGSIFGDYAMGWYRQAPGKERELVAAITWSGGSTTYADSVKGRFTISRDNAKNTVYLQMNSLKPEDTAVYCCAVYGWRFYSYDDYFDFNYWGQGTQVTVSS,low polyreactivity
19,QVQLVESGGGLVQAGGSLRLSCAASGSIFGDYARGWYRQAPGKERELVAAISRSGGSTSYADSVKGRFTISRDNAKNTVYLQMNSLKPEDSAVYYCAAYWQRFGYDYWGQGTQVSVSS,low polyreactivity
20,QVQLVESGGGLVQAGGSLRLSCAASGSIFGENAMGGYRQAPGKERELVAAITSGGSTDYADSVKGRFTISRDNAKNTVYLQMNSLKPEDTAVYYCAASGRVGPGYWYDSWGQGTQVTVSS,low polyreactivity
21,QVQLVESGGGLVQAGGSLRLSCAASGSIFGFNAMGWYRQAPGKEREFVAVISNRGGSTYYADSVKGRFTISRDNAKNTVYLQMNSLKPEDTAVYYCAARPYRDSGYWGQGTQVTVSS,high polyreactivity
22,QVQLVESGGGLVQAGGSLRLSCAASGSIFGFNAMGWYRQAPGKERELVAAITNSGVRTYYADSVKGRFTISRDNAKNTVYLQMNSLKPEDTAVYYCAAEPDTYWYTYDYWGQGTQVTVSS,low polyreactivity

row,Sequence,polyreactivity (PSR sort gate)
1,QVQLVESGGGLVQAGGSLRLSCAASGSIFGFYAMGWYRQAPGKEREFVASISDSSGSTYYADSVKGRFTISRDNAKNTVYLQMNSLKPEDTAVYYCNARVNYRWPYSWRYYWGQGTQVTVSS,high polyreactivity
2,QVQLVESGGGLVQAGGSLRLSCAASGSIFGFYAMGWYRQAPGKERELVASINWSGGSTYYADSVKGRFTISRDNAKNTVYLQMNSLKPEDTAVYYCNADQYHWYDYWGQGTQVTVSS,low polyreactivity
3,QVQLVESGGGLVQAGGSLRLSCAASGSIFGGDGMGWYRQAPGKERQLVAAITSGSSTYYADSVKGRFTISRDNAKNTVYLQLNILKPEDTAVYYCAARPYPHSAYEGDYWGRGTQVTVSS,low polyreactivity
4,QVQLVESGGGLVQAGGSLRLSCAASGSIFGGYAMGWSRQAPGNERELVASISISGGSTYYADSVKGRFTISRDNAKNTVYLQMNRLKPEDTAGYYCATDRTTTLNSPYGDPDRDDYWGQGTQVTVSS,low polyreactivity
5,QVQLVESGGGLVQAGGSLRLSCAASGSIFGGYAMGWYRQAPGKERELVAAISSGGSTYYADSVKGRFTISRDNAKNTVYLQMNSLKPEDTAVYYCNADRGNWWDYGRAYGYDYWGQGTQVTVSS,low polyreactivity
6,QVQLVESGGGLVQAGGSLRLSCAASGSIFGGYGMGSYRQAPGKERELVAAITSGSSTYYADSVKGRFTISRDNAKNTVYLQMNSLKPEDTAVYYCAARPYPHSAYEGDYWGRGTQVTVSS,low polyreactivity
7,QVQLVESGGGLVQAGGSLRLSCAASGSIFGGYGMGWYRQAPGKERELVAVITKRGGSTYYADSVKGRFTISRDNAKNTVYLQMNSLKPEDTAVYYCNADYRRYPEFDYWGQGTQVTVSS,high polyreactivity
8,QVQLVESGGGLVQAGGSLRLSCAASGSIFGGYTMGWYRQAPGKERELVAAISARGGNTYYADSVKGRFTISRDNAKNTVYLQMNSLKPEDTSVYYCAKVRYTQSYRGYGFWGQGTQVTVSS,high polyreactivity
9,QVQLVESGGGLVQAGGSLRLSCAASGSIFGGYVMGWSRQAPGKEWELVAAITSGGSTYYADSVKGRFTISRDNAKNTVYLQMNSLKPEDTAVYYCNADPYTYSYGMYYWGQGTQVTVSS,low polyreactivity
10,QVQLVESGGGLVQAGGSLRLSCAASGSIFGGYVMGWYRQAPGKERELVAAITSGGSTYYADSVKGRFTISRDNAKNTVYLQMNSLKPEDTAVYYCNADPYTYSYGMYYWGHGTQVTVSS,low polyreactivity
11,QVQLVESGGGLVQAGGSLRLSCAASGSIFGINAMGWYRQAPGKERELVAAISGSTSRTYYADSVKGRFTISRDTAKNTVYLQMNSLKPEDTAVYYCARVKGVYHFSILDYWGQGTQVTVSS,high polyreactivity
12,QVQLVESGGGLVQAGGSLRLSCAASGSIFGIYAMGWYRQAPGKERELVAAIRVSDGRTYYADSVKGRFTISRDNAKNTVYLQMNSLKPEDTAVYYCAAESQSSYGPYDYWGQGTQVTVSS,low polyreactivity
13,QVQLVESGGGLVQAGGSLRLSCAASGSIFGKYAMGWYRQAPGKERELVAAISDSGSITYYADSVKGRFTISRDNAKNTVYLQMNSLKPEDTAVYYCAAERYLLWGFEENYWGQGTQVTVSS,high polyreactivity
14,QVQLVESGGGLVQAGGSLRLSCAASGSIFGKYAMGWYRQAPGKERELVAAISKRGGSTYYADSVKGRFTISRDNAKNTVYLQMNSLKPEDTAVYYCAATPVYSGPYDYWGQGTQVTVSS,high polyreactivity
15,QVQLVESGGGLVQAGGSLRLSCAASGSIFGKYAMGWYRQAPGKERELVAAISRSGSRTFYADSVKGRFTISRDNAKNTVYLQMNSLKPEDTAVYYCNALSGDSYSYYGYDSWGQGTQVTVSS,high polyreactivity
16,QVQLVESGGGLVQAGGSLRLSCAASGSIFGLYAMGWYRQAPGKERDLVAVITYYVGTTYYADSVKGRFTISRDTAKNTVYLQMHSLKPEDTAVYYCAADLYWYYPWSAYYGEYDYWGQGTQVTVSS,low polyreactivity
17,QVQLVESGGGLVQAGGSLRLSCAASGSIFGLYAMGWYRQAPGKERELVAAISTSSGRTYYADSVKGRFTISRDNAKNTVYLQMNSLKPEDTAVYYCAASGAWWSLHYAGDYWGQGTQVTVSS,high polyreactivity
18,QVQLVESGGGLVQAGGSLRLSCAASGSIFGLYAMGWYRQAPGKERELVATISKSGVSTYYADSVKGRFTISRDNAKNTVYLQMNSLKPEDTAVYYCNADISRDKDFDYWGQGTQVTVSW,low polyreactivity
19,QVQLVESGGGLVQAGGSLRLSCAASGSIFGNYAMGWYRQAPGKERELVAAITSSGGTYYADSVKGRFTISRDNAKNTVYLQMNSLKPEDTAVYYCAARYYSYRHQSVKYGYWGQGTQVTVSS,high polyreactivity
20,QVQLVESGGGLVQAGGSLRLSCAASGSIFGPYAMGWYRQAPGKERELVAAITWTGGRTYYADSVKGRFTISRDNAKNTVYLQMNSLKPEDNAVYYCAADYSPSTWYLYYTLYYYWGQGTQVTVSS,low polyreactivity
21,QVQLVESGGGLVQAGGSLRLSCAASGSIFGPYAMGWYRQAPGKERYADSVKGRFTISRDNAKNTVYLQMNSLKPEDTAVYYCNADTSRWRYSQPIYDYWGQGTQVTVSS,low polyreactivity
